Consider four molecules from patent US20240400703A1 (Genmab, published 2024).

The target of test [1] is T1, recombinant human OX40 fused to a His-tag (Acro Biosystems, cat. no. OX0-H5224) (human, UniProt P43489 29-214).
T1 construct: bought protein; also called sOX40; soluble OX40; not shown: His-tag
T1 sequence: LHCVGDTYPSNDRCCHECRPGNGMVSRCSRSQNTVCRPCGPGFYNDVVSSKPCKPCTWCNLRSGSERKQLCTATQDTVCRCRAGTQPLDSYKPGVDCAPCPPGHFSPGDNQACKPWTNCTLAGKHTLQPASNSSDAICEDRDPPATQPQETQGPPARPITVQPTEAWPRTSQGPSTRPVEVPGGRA
Kind of test: BLI, Ab on AHC sensor, OX40 analyte. The protocol:
Experiments were carried out while shaking at 1,000 RPM at 30° C. […] Next, AHC sensors were loaded with antibody (1 μg/mL in Sample Diluent) for 600 s. After a baseline measurement in sample diluent (100 s), the association (200 s) and dissociation (1,000 s) of human OX40 (Acro Biosystems, cat. no. OX0-H5224), and cynomolgus monkey OX40 (Acro Biosystems, cat. no. OX0-C5220) was determined using a concentration range of 0.78 to 800 nM with 2-fold dilution steps.
The theoretical molecular masses of the antigens based on the amino acid sequences were used for calculations. For each antibody, a reference sensor was used which was incubated with Sample Diluent instead of antigen. AHC sensors were regenerated by exposure to 10 mM glycine buffer pH 1.7 for 5 s, followed by neutralization in Sample Diluent for 5 s; both steps were repeated twice. Subsequently sensors were loaded again with antibody for the next cycle of kinetic measurements.
Data were acquired using Data Acquisition Software v12.0 (Sartorius) and analyzed with Data Analysis Software v12.0 (Sartorius). Data traces were corrected per antibody by subtraction of the reference sensor. The Y-axis was aligned to the last 10 s of the baseline and Interstep Correction alignment to dissociation as well as Savitzky-Golay filtering were applied. Data traces with a response <0.05 nm were excluded from analysis. […] The data was fitted with the 1:1 model using a window of interest for the association of 200 s and dissociation times set at 50 s, 200 s and 1,000 s. The dissociation time was chosen based upon R² value, visual inspection of the curve and at least 5% signal decay during the dissociation step.
A general note: In BLI a coated tip is dipped into the sample, and binding shifts an interference pattern.

For test [2], the target named is T1, recombinant human OX40 fused to a …. Kind of test: BLI cross-block; first Ab (competitor): IgG1-CD134-007. As for the experimental part: (§1) Amine Reactive 2nd Generation (AR2G) biosensors (Sartorius, cat. no. 18-5092) were activated for 300 s with a solution of 20 mM EDC (N-(3-Dimethylaminopropyl)-N-ethylcarbodiimide hydrochloride; Sartorius, cat. no. 18-1033) and 10 mM s-NHS (N-hydroxysulfosuccinimide sodium salt; Sartorius, cat. no. 18-1067). […] After a baseline measurement in Sample Diluent (Sartorius, cat. no. 18-1104) for 50 s, the AR2G biosensors containing immobilized antibody were loaded for 300 s with human OX40 fused to a His-tag (100 nM diluted in Sample Diluent; Acro Biosystems, cat. no. OX0-H5224). The association (300 s) of a second antibody (10 μg/mL in Sample Diluent) was determined. Sensors were regenerated by three cycles of exposure to 10 mM Glycine (Sigma-Aldrich, cat. no. 15527) buffer pH 2.5 for 5 s followed by neutralization in Sample Diluent for 5 s.
(§2) Data were acquired using Data Acquisition Software v12.0 (Sartorius) and analyzed with Data Analysis HT Software v12.0 (Sartorius). Data traces were corrected by subtraction of a reference curve (Sample Diluent instead of second antibody) in order to correct for the dissociation of antigen from the immobilized first antibody. The Y-axis was aligned to the start of the association step and Savitzky-Golay filtering was applied. The corrected association responses of the second antibodies were plotted in a matrix format (Table 5). Responses ≥0.1 nm were considered non-blocking antibody pairs, while responses <0.1 were considered blocking antibody pairs.

Test [3] has the same target. Briefly: BLI cross-block; first Ab (competitor): IgG1-CD134-012. The protocol: (§3) Experiments were carried out while shaking at 1,000 RPM and at 30° C.
as §1, §2

Test [4] has the same target. Briefly: BLI cross-block; first Ab (competitor): IgG1-CD134-SF2. The protocol: as §1, §2
The target is the same in test [5]. Briefly: BLI cross-block; first Ab (competitor): IgG1-CD134-Hu106. The protocol:
as §1, §2

Test [6] shares this target. Kind of test: BLI cross-block; first Ab (competitor): IgG1-CD134-GBR830. The protocol:
as §3, §1, §2

Test [7] has the same target. Briefly: BLI cross-block; first Ab (competitor): IgG1-CD134-ABBV368. The protocol:
as §3, §1, §2

The target is the same in test [8]. Kind of test: BLI cross-block; first Ab (competitor): IgG1-CD134-003-HC6LC2-RR. The protocol:
as §1, §2

B1: IgG1-CD134-003-HC6LC2-P329R-E345R (antibody)
heavy: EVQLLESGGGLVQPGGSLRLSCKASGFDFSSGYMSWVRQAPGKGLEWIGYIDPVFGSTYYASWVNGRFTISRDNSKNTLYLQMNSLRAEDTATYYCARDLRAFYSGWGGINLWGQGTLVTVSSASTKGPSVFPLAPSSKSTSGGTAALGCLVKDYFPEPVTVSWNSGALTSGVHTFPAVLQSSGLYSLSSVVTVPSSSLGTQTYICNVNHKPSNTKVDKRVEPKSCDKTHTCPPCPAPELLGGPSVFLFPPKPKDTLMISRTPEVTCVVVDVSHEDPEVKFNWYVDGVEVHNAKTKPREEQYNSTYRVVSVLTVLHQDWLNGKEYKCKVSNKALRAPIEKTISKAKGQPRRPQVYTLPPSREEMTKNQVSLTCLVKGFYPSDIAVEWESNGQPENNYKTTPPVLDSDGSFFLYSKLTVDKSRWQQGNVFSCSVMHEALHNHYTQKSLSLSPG
light: AAVLTQSPSSLSASVGDRVTITCQSSQIVVNNNFLSWYQQKPGKAPKLLIYDASNLASGVPDRFSGSGSGTDFTFTISSLQPEDIATYYCLGGYDDDAENAFGGGTKVEIKRTVAAPSVFIFPPSDEQLKSGTASVVCLLNNFYPREAKVQWKVDNALQSGNSQESVTEQDSKDSTYSLSSTLTLSKADYEKHKVYACEVTHQGLSSPVTKSFNRGEC
notes: humanized; human IgG1 with P329R and E345R (Eu numbering), kappa; also called IgG1-CD134-003-HC6LC2-RR
For B1, the Kd (as a rule, the free concentration of one partner at which half of the binding sites on the other are occupied at equilibrium, for simple one-to-one binding) in test [1] stood at 3.4 nM. Moreover, the koff (in general, the first-order rate constant of dissociation) in test [1] is 0.00086 s⁻¹. Also, the on-rate (kon) (as a rule, a measure of how fast the partners come together) in test [1] turned out to be 250000 M⁻¹ s⁻¹. Further, the association response in test [2] was -0.04 nm; in test [3], -0.02 nm; in test [4] it was 0.22 nm; in test [5] it was 0.74 nm; in test [6] it was 0.19 nm; in test [7], 0.85 nm. The association response in test [8] came out at 0 nm.

B2: IgG1-CD134-007 (antibody)
heavy: not shown
light: AQVLTQTPSPVSAAVGGTVTISCQSSESVWNNNWLAWYQQKPGQPPNLLIYEASTLASGVSSRFKGSGSGTQFTLTVSEVQSDDAATYYCQGGYYDSSPIWTFGGGTEVVVKRTVAAPSVFIFPPSDEQLKSGTASVVCLLNNFYPREAKVQWKVDNALQSGNSQESVTEQDSKDSTYSLSSTLTLSKADYEKHKVYACEVTHQGLSSPVTKSFNRGEC
notes: rabbit-human chimeric IgG1
Regarding B2, in test [1], the Kd worked out at 2 nM. Besides, the off-rate constant (koff) in test [1] was determined as 0.00075 s⁻¹. The kon in test [1] turned out to be 380000 M⁻¹ s⁻¹. Moreover, the association response in test [2] was 0.01 nm; in test [3], 0.8 nm; in test [4], 0.22 nm; in test [5], 0 nm; in test [6], 0 nm; in test [7], -0.05 nm. Besides, the association response in test [8] is -0.07 nm.

B3: IgG1-CD134-003 (antibody)
heavy: not shown
light: AAVLTQTPSPVSAAVGGTVTIKCQSSQIVVNNNFLSWYQQKPGQPPKLLIYDASNLASGVPDRFSGSGSGTQFTLTISGVQSDDAATYYCLGGYDDDAENAFGGGTEVVVQRTVAAPSVFIFPPSDEQLKSGTASVVCLLNNFYPREAKVQWKVDNALQSGNSQESVTEQDSKDSTYSLSSTLTLSKADYEKHKVYACEVTHQGLSSPVTKSFNRGEC
notes: rabbit-human chimeric IgG1, wild-type Fc; also called parental chimeric antibody
With B3, in test [1], the equilibrium dissociation constant (Kd) stood at 1.1 nM. Moreover, the koff in test [1] was found to be 0.00035 s⁻¹. Further, the kon in test [1] is 330000 M⁻¹ s⁻¹. For the same molecule, the association response in test [2] was -0.07 nm; in test [3], -0.01 nm; in test [4], 0.21 nm; in test [5], 0.64 nm; in test [6], 0.2 nm; in test [7], 0.72 nm. Besides, in test [8], the association response is -0.03 nm.

B4: IgG1-CD134-012 (antibody)
heavy: not shown
light: DIVMTQTPASVEAAVGGTVTIKCQASENIYSSLAWYQQKPGQPPKLLIYRTSTLASGVPSRFKGSGSGTQFTLTISDLESDDAATYYCQSYYHNSGGGYDYGFGGGTEVVAKRTVAAPSVFIFPPSDEQLKSGTASVVCLLNNFYPREAKVQWKVDNALQSGNSQESVTEQDSKDSTYSLSSTLTLSKADYEKHKVYACEVTHQGLSSPVTKSFNRGEC
notes: rabbit-human chimeric IgG1
As for B4, in test [1], the Kd is 11 nM. In addition, the off-rate constant (koff) in test [1] came out at 0.0016 s⁻¹. Besides, the kon in test [1] worked out at 140000 M⁻¹ s⁻¹. The association response in test [2] worked out at 0.82 nm; in test [3], 0 nm; in test [4], 0.14 nm; in test [5], 0.51 nm; in test [6], 0.16 nm; in test [7], 0.51 nm. In addition, the association response in test [8] was 0.03 nm.
